Among the data in PMC3865438 are stoichiometry N values, retold here.

This test has as its target cytochrome b6f complex from Chlamydomonas reinhardtii (Chlamydomonas reinhardtii) (UniProt Q00471). Briefly: crystal structure.

Turning to “cytochrome b6f complex from Chlamydomonas reinhardtii (from UniProt Q00471 1-215; P49728 30-206; P23230 1-160; P23577 32-317)”, the stoichiometry N turned out to be 2.

The stoichiometry N is the number of molecules, sites or subunits per partner or assembly.
